Measurements: US20250179195A1

target: human FLT3 domain 1 Fc fusion protein (wild type) (human) (UniProt P36888); assay: SPR (Carterra LSA); FLT3 D1-Fc captured on anti-human Ig Fc, Fab as analyte; mean ± SEM, n=4

Kd [nM] | koff [s⁻¹] | kon [M⁻¹ s⁻¹] | Binder
5.2 | 0.0046 | 890000 | Fab fragment of antibody 17566 (Fab, V domains shown) VH: QVTLKESGPVLVKPTETLTLTCTVSGFSFNNARMGVNWIRQPPGKALEWLAHIFSNDEKSYSTSLKSRLTISKDISKSQVVLTMTNMDPVDTATYYCARIVGYGSGWRLLGDYWGQGTLVTVSS VL: AIQMTQSPSSLSASVGDRVTITCRASQGITNDLGWYQQKPGKAPKLLIYAASSLQSGVPSRFSGSGSGTDFTLTISSLQPEDFATYYCLQDYNYPWTFGQGTKVEIK
3.1 | 0.003 | 980000 | Fab fragment of antibody 17497 (Fab, V domains shown) VH: QVQLQESGPGLVKPSGTLSLTCAVSGGSISSTNWWSWVRQPPGKGLEWIGEISHRGSTNYNPSLKSRVTISVDKSKNQFSLKLSSVTAADTAVYYCARDPEMTLYYYYGMDVWGQGTTVTVSS VL: DIQMTQSPSSLSASVGDRVTITCRASRGIRNDLGWYQQKPGKAPKRLIYAASSLQSGVPSRFSGSGSGTEFTLTISSLQPEDFATYYCLQHNSYPLTFGGGTKVEIK
19.3 | 0.0099 | 520000 | Fab fragment of antibody 17543 (Fab, V domains shown) VH: QVTLKESGPVLVKPTETLTLTCTVSGFSLINARMGVTWIRQPPGKALEWLAHIFSNDEKSYSTSLKSRLTISKDTSKSQVVLTMTNMDPVDTATYYCARIPGYSRGWDYYYYGMDVWGQGTMVTVSS VL: DIQMTQSPSSLSASVGDRVTITCRASQGIRNDLGWYQQKPGKAPKRLIYAASTLQSGVPSRFSGSGSGTEFTLTISSLQPEDFATYYCLQHNSYPWTFGQGTKVEIK
